Data: PMC12990809

Legend:
Test in all cases: pulldown
Details in all cases: 20 nM protein, 1.5 uM RNA pool; 20 mM HEPES pH 7.8, 70 mM KCl, 10 mM NaCl, 10% glycerol, 2 mM DTT, 0.1 ug/uL BSA; 30 min, 4 C
[1] = target: T1, C44B7.2 (Caenorhabditis elegans) (UniProt Q95QR5)
T1 sequence: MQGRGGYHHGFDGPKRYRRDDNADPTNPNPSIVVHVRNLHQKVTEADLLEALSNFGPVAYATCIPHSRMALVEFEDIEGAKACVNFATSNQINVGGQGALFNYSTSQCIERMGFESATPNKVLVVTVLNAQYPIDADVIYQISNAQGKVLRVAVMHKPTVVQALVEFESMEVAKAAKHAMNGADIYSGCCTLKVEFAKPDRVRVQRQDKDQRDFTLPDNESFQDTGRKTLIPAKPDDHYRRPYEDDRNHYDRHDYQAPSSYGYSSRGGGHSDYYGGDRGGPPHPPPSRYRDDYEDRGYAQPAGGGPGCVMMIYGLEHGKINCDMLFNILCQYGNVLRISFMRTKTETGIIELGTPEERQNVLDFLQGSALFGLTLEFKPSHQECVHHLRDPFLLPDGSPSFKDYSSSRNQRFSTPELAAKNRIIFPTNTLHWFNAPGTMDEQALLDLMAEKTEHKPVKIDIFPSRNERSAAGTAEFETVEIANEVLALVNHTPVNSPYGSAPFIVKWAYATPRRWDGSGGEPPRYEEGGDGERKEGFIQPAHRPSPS

[2] = target: T2, K07H8.9 (Caenorhabditis elegans) (UniProt O45180)
T2 sequence: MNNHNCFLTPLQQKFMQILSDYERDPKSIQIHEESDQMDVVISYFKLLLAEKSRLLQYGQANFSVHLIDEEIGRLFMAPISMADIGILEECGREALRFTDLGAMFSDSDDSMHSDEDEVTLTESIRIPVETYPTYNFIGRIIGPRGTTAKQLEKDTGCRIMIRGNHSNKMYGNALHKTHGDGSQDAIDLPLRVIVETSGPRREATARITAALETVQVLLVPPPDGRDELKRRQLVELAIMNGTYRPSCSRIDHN

[3] = target: T3, PK05405.1 I85V;D92G;E327K;K328E (Cannabis sativa) (UniProt A0A7J6HVI1)
T3 sequence: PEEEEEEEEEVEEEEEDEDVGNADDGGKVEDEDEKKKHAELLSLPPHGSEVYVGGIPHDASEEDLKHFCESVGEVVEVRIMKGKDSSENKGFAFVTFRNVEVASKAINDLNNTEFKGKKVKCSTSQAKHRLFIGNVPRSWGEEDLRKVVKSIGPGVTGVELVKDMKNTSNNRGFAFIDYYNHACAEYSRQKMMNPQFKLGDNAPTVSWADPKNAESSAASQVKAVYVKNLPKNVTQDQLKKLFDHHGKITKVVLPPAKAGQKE

[4] = target: T4, PK00840.1 S382G (Cannabis sativa) (UniProt A0A803NL23)
T4 sequence: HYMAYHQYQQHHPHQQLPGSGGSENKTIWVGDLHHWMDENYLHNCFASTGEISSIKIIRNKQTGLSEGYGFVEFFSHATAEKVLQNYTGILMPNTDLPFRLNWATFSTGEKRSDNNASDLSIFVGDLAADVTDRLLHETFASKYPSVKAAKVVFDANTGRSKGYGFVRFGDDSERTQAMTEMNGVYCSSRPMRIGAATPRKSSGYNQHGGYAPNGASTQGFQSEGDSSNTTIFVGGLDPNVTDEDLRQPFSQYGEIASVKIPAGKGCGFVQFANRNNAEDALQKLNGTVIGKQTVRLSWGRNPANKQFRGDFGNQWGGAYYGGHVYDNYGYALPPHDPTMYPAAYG

[5] = target: T5, PK20770.1 (Cannabis sativa) (UniProt A0A7J6HVT3)
T5 sequence: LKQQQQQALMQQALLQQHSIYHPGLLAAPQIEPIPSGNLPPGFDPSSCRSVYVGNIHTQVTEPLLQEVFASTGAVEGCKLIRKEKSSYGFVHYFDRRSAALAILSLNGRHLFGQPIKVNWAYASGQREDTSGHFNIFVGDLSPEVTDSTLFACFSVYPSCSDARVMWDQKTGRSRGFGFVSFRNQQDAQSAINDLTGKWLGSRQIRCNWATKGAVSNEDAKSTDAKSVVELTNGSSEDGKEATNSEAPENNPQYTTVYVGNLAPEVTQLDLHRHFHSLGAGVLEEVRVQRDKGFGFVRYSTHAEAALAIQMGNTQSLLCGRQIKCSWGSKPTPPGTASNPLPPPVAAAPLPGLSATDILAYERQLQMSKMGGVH

[6] = target: T6, PK16782.1 E6F;T7E (Cannabis sativa) (UniProt A0A7J6H871)
T6 sequence: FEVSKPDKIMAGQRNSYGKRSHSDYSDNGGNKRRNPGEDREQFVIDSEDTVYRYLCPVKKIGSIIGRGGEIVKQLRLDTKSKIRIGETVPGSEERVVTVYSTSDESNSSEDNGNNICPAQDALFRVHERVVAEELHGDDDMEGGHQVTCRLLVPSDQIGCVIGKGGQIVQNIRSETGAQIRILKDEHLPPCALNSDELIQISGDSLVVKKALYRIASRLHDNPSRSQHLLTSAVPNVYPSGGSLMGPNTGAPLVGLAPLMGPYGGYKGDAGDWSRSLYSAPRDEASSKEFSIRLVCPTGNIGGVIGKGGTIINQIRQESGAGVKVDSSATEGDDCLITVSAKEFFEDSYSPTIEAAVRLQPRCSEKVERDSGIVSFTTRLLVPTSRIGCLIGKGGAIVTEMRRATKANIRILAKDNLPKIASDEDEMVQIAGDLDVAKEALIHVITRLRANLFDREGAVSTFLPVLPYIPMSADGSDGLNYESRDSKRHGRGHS

[7] = target: T7, rbm-28 (Caenorhabditis elegans) (UniProt O62325)
T7 sequence: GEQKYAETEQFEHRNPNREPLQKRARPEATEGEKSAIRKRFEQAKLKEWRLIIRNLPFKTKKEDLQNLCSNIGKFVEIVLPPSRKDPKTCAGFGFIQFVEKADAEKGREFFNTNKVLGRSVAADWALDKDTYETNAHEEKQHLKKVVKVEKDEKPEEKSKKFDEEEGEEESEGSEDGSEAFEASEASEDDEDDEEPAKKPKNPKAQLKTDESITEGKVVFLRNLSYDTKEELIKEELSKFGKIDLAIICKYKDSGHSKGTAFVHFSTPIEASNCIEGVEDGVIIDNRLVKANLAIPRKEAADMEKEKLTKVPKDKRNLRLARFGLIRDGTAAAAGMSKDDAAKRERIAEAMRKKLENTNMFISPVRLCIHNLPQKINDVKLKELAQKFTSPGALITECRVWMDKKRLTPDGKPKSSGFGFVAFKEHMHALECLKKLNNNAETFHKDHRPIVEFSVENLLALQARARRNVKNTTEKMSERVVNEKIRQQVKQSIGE

Q: For AACANA [RNAcompete motif RNCMPT00468], which binding signal (z-score (mean of top ten 7-mers)) [1] is on record?
A: Its binding signal (z-score (mean of top ten 7-mers)) is 8.36.

Q: With UACUNAC [RNAcompete motif RNCMPT00469] as the substance, how does the binding signal (z-score (mean of top ten 7-mers)) [2] read?
A: The binding signal (z-score (mean of top ten 7-mers)) was 7.13.

Q: Which binding signal (z-score (mean of top ten 7-mers)) [3] does the source give for UUUUUCG [RNAcompete motif RNCMPT00466] here?
A: The binding signal (z-score (mean of top ten 7-mers)) was 7.47.

Q: UUUUUU [RNAcompete motif RNCMPT00461] was tested. Which binding signal (z-score (mean of top ten 7-mers)) [4] did it give?
A: The binding signal (z-score (mean of top ten 7-mers)) was 7.67.

Q: For UUUUUU [RNAcompete motif RNCMPT00464], which binding signal (z-score (mean of top ten 7-mers)) [5] is on record?
A: Its binding signal (z-score (mean of top ten 7-mers)) is 14.6.

Q: How did the binding signal (z-score (mean of top ten 7-mers)) [6] turn out when AACCAAA [RNAcompete motif RNCMPT00460] was run?
A: Its binding signal (z-score (mean of top ten 7-mers)) is 8.43.

Q: Which binding signal (z-score (mean of top ten 7-mers)) [7] does the source give for AGACUCU [RNAcompete motif RNCMPT00470] here?
A: Its binding signal (z-score (mean of top ten 7-mers)) is 9.34.
